In patent US5973118:

Assays:
[1] = biological target: recombinant plasminogen activator rPA (recombinant tPA derivative comprising the kringle 2 and protease domains) (Homo sapiens (Human)) (UniProt P00750); assay: affinity column: inhibitor coupled to CNBr-Sepharose, loaded with 2 MU r-PA/ml gel, eluted rPA by S2288 amidolytic activity, run 3
[2] = biological target: recombinant plasminogen activator rPA (recombinant tPA derivative comprising the kringle 2 and protease domains) (Homo sapiens (Human)) (UniProt P00750); assay: affinity column: inhibitor coupled to CNBr-Sepharose, loaded with 2 MU r-PA/ml gel, eluted rPA by S2288 amidolytic activity, run 2
[3] = biological target: recombinant plasminogen activator rPA (recombinant tPA derivative comprising the kringle 2 and protease domains) (Homo sapiens (Human)) (UniProt P00750); assay: affinity column: inhibitor coupled to CNBr-Sepharose, loaded with 2 MU r-PA/ml gel, eluted rPA by S2288 amidolytic activity, run 1
[4] = biological target: recombinant plasminogen activator rPA (recombinant tPA derivative comprising the kringle 2 and protease domains) (Homo sapiens (Human)) (UniProt P00750); assay: affinity column: inhibitor coupled to CNBr-Sepharose, loaded with 2 MU r-PA/ml gel, eluted rPA by S2288 amidolytic activity, run 4
[5] = biological target: recombinant plasminogen activator rPA (recombinant tPA derivative comprising the kringle 2 and protease domains) (Homo sapiens (Human)) (UniProt P00750); assay: affinity column: inhibitor coupled to CNBr-Sepharose, eluted rPA; reference seed-ETI-Sepharose
[6] = biological target: recombinant plasminogen activator rPA (recombinant tPA derivative comprising the kringle 2 and protease domains) (Homo sapiens (Human)) (UniProt P00750); assay: affinity column: inhibitor coupled to CNBr-Sepharose, loaded with 2 MU r-PA/ml gel, eluted rPA by S2288 amidolytic activity, run 5

recombinant, non-modified ETI (recETI) (from UniProt P09943)
specific activity (U/mg), inhibition of trypsin with BAPA as substrate (trypsin): 1.07 U/mg

SerETI (recombinant ETI polypeptide in which the N-terminal Val is replaced by Ser)
specific activity (U/mg), inhibition of trypsin with BAPA as substrate (trypsin): 1.5 U/mg
Binding capacity MU/ml [1]: 1.53 MU/ml
Binding capacity MU/ml [2]: 1.35 MU/ml
Binding capacity MU/ml [3]: 1.28 MU/ml
Binding capacity MU/ml [4]: 1.48 MU/ml
fold higher binding capacity than seed-ETI-Sepharose [5]: 1.5 fold
Binding capacity MU/ml [6]: 1.49 MU/ml

ETI isolated from the seeds of Erythrina caffra [ETI (seeds)] (from UniProt P09943)
specific activity (U/mg), inhibition of trypsin with BAPA as substrate (trypsin): 0.88 U/mg
Binding capacity MU/ml [1]: 1.08 MU/ml
Binding capacity MU/ml [2]: 0.95 MU/ml
Binding capacity MU/ml [3]: 1.04 MU/ml
Binding capacity MU/ml [4]: 1.01 MU/ml
Binding capacity MU/ml [6]: 0.98 MU/ml
